From US9266964
Where a chain is given by its changes, count along the chain named.

B1: M197-A01 (Fab, V domains shown)
VH: EVQLLESGGGLVQPGGSLRLSCAASGFTFSIYDMIWVRQAPGKGLEWVSSIYPSGGNTSYADSVKGRFTISRDNSKNTLYLQMNSLRAEDTAVYYCAYRRTGIPRRDAFDIWGQGTMVTVSS
VL: DIQMTQSPSTLSASVGDRVTITCRASQSISSWLAWYQQKPGKAPNLLIYKASTLESGVPSRFSGSGSGTEFTLTISSLQPDDFATYYCQQYNTYWTFGQGTKVEIK
B2: M197-A08 (Fab, V domains shown)
VH: B1 VH with D33S, I35Q, Y52G, P53S, N57K, S59L
VL: B1 VL
B3: M202-A01 (Fab, V domains shown)
VH: B1 VH with I31H, D33I, I35M, S50G, P53S, N57I, S59V, T101I, I103V
VL: B1 VL
B4: M197-F03 (Fab, V domains shown)
VH: B1 VH with D33S, I35F, Y52G, N57V, S59H
VL: B1 VL
B5: M198-C05 (Fab, V domains shown)
VH: B1 VH with I31R, D33K, I35Y, S50V, Y52G, N57A, S59F
VL: B1 VL
B6: M198-E09 (Fab, V domains shown)
VH: B1 VH with I35N, N57R, S59R
VL: B1 VL
B7: M200-H07 (Fab, V domains shown)
VH: B1 VH with I31H, D33I, I35M, S50G, P53S, N57I, S59V, I103V, D107N, I111N
VL: B1 VL
B8: M202-G03 (Fab, V domains shown)
VH: EVQLLESGGGLVQPGGSLRLSCAASGFTFSHYIMMWVRQAPGKGLEWVSGIYSSGGITVYADSVKGRFTISRDNSKNTLYLQMNSLRAEDTAVYYCAFRRTGVPRRDSFEIWGQGTMVTVSS
VL: B1 VL
B9: M202-E06 (Fab, V domains shown)
VH: B8 VH with F98Y, T101R, S108D, E110D
VL: B1 VL
B10: M198-E02 (Fab, V domains shown)
VH: B1 VH with D33S, I35Y, S50Y, Y52R, S59K
VL: B1 VL
B11: M198-B09 (Fab, V domains shown)
VH: B1 VH with I31V, D33S, I35T, Y52G, P53S, N57S, S59T
VL: B1 VL
B12: M197-F01 (Fab, V domains shown)
VH: B1 VH with D33H, I35Y, Y52G, N57P, S59G
VL: B1 VL
B13: M202-H05 (Fab, V domains shown)
VH: B8 VH with S108V, E110D
VL: B1 VL
B14: M198-H02 (Fab, V domains shown)
VH: EVQLLESGGGLVQPGGSLRLSCAASGFTFSPYNMYWVRQAPGKGLEWVSWIVPGGVTKYADSVKGRFTISRDNSKNTLYLQMNSLRAEDTAVYYCAYRRTGIPRRDAFDIWGQGTMVTVSS
VL: B1 VL
B15: M197-H10 (Fab, V domains shown)
VH: B1 VH with I31S, D33N, I35H, Y52V, N57K, S59N
VL: B1 VL
B16: M198-A07 (Fab, V domains shown)
VH: B1 VH with I31R, D33Q, I35H, S50W, Y52S, N57I, S59G
VL: B1 VL
B17: M198-B12 (Fab, V domains shown)
VH: B1 VH with I31K, D33S, I35A, S50G, N57R, S59L
VL: B1 VL
B18: M198-A09 (Fab, V domains shown)
VH: B1 VH with D33F, I35S, Y52R, P53S, N57P, S59W
VL: B1 VL
B19: M198-A02 (Fab, V domains shown)
VH: B1 VH with I31R, D33S, Y52W, P53S, N57A, S59E
VL: B1 VL
B20: M202-F06 (Fab, V domains shown)
VH: B8 VH with F98Y, R106W, S108A, E110D
VL: B1 VL
B21: M198-H08 (Fab, V domains shown)
VH: B1 VH with I35Y, Y52G, N57P, S59A
VL: B1 VL
B22: M195-D12 (Fab, V domains shown)
VH: B1 VH with D33G, I35F, S50G, Y52G, N57P, S59K
VL: B1 VL
B23: M201-H06 (Fab, V domains shown)
VH: B8 VH with F98Y, S108A, E110D
VL: B1 VL
B24: M198-F04 (Fab, V domains shown)
VH: B1 VH with I35W, Y52R, N57I, S59K
VL: B1 VL
B25: M198-C10 (Fab, V domains shown)
VH: EVQLLESGGGLVQPGGSLRLSCAASGFTFSHYMGMNWVRQAPGKGLEWVSSIVPSGGWTQYADSVKGRFTISRDNSKNTLYLQMNSLRAEDTAVYYCAYRRTGIPRRDAFDIWGQGTMVTVSS
VL: B1 VL
B26: M198-C06 (Fab, V domains shown)
VH: B1 VH with I31Q, D33F, I35H, S50Y, N57M, S59E
VL: B1 VL
B27: M198-F08 (Fab, V domains shown)
VH: B1 VH with I31V, D33S, I35W, Y52S, P53S, N57M, S59E
VL: B1 VL
B28: M202-A04 (Fab, V domains shown)
VH: B8 VH with F98Y, T101K, V103I, S108D, E110D
VL: B1 VL
B29: M200-E11 (Fab, V domains shown)
VH: B8 VH with F98Y, S108A, E110D, I111N
VL: B1 VL
B30: M197-H11 (Fab, V domains shown)
VH: B1 VH with D33N, N57W, S59T
VL: B1 VL
B31: M196-H03 (Fab, V domains shown)
VH: B14 VH with P31R, N33V, Y35W, W50S, V52S, G54S, V56D, K58H
VL: B1 VL
B32: M197-E12 (Fab, V domains shown)
VH: B1 VH with I31T, D33T, I35R, N57K, S59Q
VL: B1 VL
B33: M198-G07 (Fab, V domains shown)
VH: B1 VH with I35T, N57Q, S59I
VL: B1 VL
B34: M195-B12 (Fab, V domains shown)
VH: B1 VH with I31K, D33W, I35Y, S50Y, Y52R, N57Q, S59Y
VL: B1 VL
B35: M198-C09 (Fab, V domains shown)
VH: B1 VH with D33T, I35Y, Y52S, N57W, S59Y
VL: B1 VL
B36: M198-E11 (Fab, V domains shown)
VH: B1 VH with I31T, D33S, I35Y, N57L, S59W
VL: B1 VL
B37: M202-B04 (Fab, V domains shown)
VH: B8 VH with F98Y, T101S, S108D, E110D
VL: B1 VL
B38: M195-C12 (Fab, V domains shown)
VH: B14 VH with P31M, N33Q, Y35F, W50S, V52S, V56G, K58Q
VL: B1 VL

target: human plasma kallikrein (human, UniProt P03952 20-390; P03952 391-638); experiment: cell-based or functional assay
Sequence (P03952 20-390, chain 1 of 2): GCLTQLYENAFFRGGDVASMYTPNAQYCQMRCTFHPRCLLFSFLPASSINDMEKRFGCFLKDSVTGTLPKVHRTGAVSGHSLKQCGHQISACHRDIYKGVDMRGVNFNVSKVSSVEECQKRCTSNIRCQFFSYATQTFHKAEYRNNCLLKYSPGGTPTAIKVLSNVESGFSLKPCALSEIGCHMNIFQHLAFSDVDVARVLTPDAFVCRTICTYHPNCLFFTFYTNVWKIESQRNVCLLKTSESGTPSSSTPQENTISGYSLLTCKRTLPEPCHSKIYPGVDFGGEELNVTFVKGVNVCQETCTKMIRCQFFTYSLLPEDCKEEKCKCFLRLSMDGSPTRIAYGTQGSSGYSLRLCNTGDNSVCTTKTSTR
Sequence (P03952 391-638, chain 2 of 2): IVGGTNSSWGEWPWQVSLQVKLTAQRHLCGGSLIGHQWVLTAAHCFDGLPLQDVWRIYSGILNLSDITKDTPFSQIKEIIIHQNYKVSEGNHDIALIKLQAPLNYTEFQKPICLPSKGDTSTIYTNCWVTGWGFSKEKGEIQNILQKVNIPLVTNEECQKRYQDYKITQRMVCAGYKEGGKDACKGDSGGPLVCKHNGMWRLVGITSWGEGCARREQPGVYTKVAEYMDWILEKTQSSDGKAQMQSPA

Binder	% inhibition at 10 nM [%]
B1	95.3
B2	93.7
B3	88.9
B4	90.7
B5	83.9
B6	93.1
B7	85.4
B8	88.3
B9	91.5
B10	90.3
B11	93.5
B12	92.6
B13	84
B14	85.8
B15	94.1
B16	86.1
B17	80.7
B18	77.3
B19	89.1

Binder	% inhibition at 10 nM [%]
B20	84.2
B21	92.3
B22	90.8
B23	84.6
B24	92.9
B25	93
B26	76.5
B27	91.8
B28	81.2
B29	83.2
B30	92.9
B31	83.9
B32	93
B33	94.9
B34	87.7
B35	75.4
B36	92.5
B37	81.9
B38	84.2
